This passage reports stoichiometry N (MNT^Lpg per HEPN^Lpg chain (1:4)) and stoichiometry N results from publication PMC11586414.

Usually stoichiometry N stands for a count of units in the complex or per binding partner.

“And” between values parts separate entries of the source, which are not always exact repeats. Equal values may be shown once.

Assay [1] deals with HEPN^Lpg WT (HEPN toxin of the Legionella pneumophila HEPN–MNT module) (Legionella pneumophila Philadelphia 1) (UniProt Q5ZRG2). The assay can be described thus: crystal structure.
Assay [2] has the same target. The assay can be described thus: AUC.

In assay [1], “MNT^Lpg (MNT antitoxin of the Legionella pneumophila HEPN–MNT module) (from UniProt Q5ZRG1 1-108) (enzyme)” gave a stoichiometry N (MNT^Lpg per HEPN^Lpg chain (1:4)) of 0.25. For the substance “HEPN^Lpg WT (HEPN toxin of the Legionella pneumophila HEPN–MNT module) (from UniProt Q5ZRG2 1-139) (natural protein)”, the stoichiometry N in assay [1] is 4; in assay [2], 2 and 4.
